# Target: truncated recombinant SARS-CoV-2 nucleocapsid (N) protein, AA133–419 (SARS-CoV-2 (isolate USA-WA1/2020), UniProt P0DTC9)
# Assay: ELISA
binder,measurement,value
"mBG21 (antibody, V domains shown) VH: QIQLVQSGPELKKPGETVKISCKASGYTFTDYSMHWVKQAPGKGSKWMGWINTETGEPTYADDFKGRFAFSLETSASTAYLQINNLKNEDTATYFCALRRWGQGTLVTVSS VL: IVMTQTPKFLLVSAGDRVTITCKASQSVSNDVAWFQQKPGQSPKKLLIYFASNRYTGVPDRFTGSGYGTDFTFTITTVQAEDLAVYFCQQDYSSPWTFGGGTKLEIK",corrected average ELISA signal,1.43
